Experimental data from patent US20080301824A1 (CEDARS SINAI MEDICAL CENTER, published 2008).

Experiments:
[1] = target: T1, endogenous parkin of PC12 cells (UniProt Q9JK66 1-465); experiment: co-IP with mouse anti-syt1 from PC12 extracts
T1 construct: also called 50 kDa parkin band
T1 sequence (looked up): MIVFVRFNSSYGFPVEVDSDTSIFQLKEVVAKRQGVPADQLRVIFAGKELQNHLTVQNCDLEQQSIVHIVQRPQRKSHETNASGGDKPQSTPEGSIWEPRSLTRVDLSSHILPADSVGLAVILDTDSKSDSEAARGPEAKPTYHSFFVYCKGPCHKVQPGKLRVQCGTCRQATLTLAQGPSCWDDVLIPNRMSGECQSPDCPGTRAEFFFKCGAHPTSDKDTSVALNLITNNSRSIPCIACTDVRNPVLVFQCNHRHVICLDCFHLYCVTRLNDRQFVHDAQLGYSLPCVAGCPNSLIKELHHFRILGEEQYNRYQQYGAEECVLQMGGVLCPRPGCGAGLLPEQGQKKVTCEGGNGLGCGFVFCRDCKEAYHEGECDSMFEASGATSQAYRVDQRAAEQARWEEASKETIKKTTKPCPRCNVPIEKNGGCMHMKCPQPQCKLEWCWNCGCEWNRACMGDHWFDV

[2] = target: T2, GFP-syt11 (GFP-tagged full-length human synaptotagmin XI) (human, UniProt P42212 1-238 = GFP); experiment: co-IP with anti-HA agarose from HEK293 cells, anti-GFP blot
T2 construct: also called GFP-sytXI; GFP-sytxI
Method: To determine which domain of parkin binds to synaptotagmin, several truncated parkins tagged with the HA epitope were constructed (FIG. 3A). […] Each truncated construct was coexpressed with GFP-sytxI. After 24 h, protein extracts were immunoprecipitated with rat anti-HA-conjugated agarose followed by western blot detection with anti-GFP antibody.

[3] = target: endogenous parkin of human cerebral cortex (human, UniProt O60260 1-465, limits assumed); experiment: co-IP from human cerebral cortex extract
[4] = target: T3, GAL4 binding domain-Hrs fusion encoded by pGBT9-Hrs (hepatocyte growth factor regulated kinase substrate) (UniProt P04386 1-147; O14964 1-777, limits assumed); experiment: yeast two-hybrid filter assay
T3 construct: Unrelated bait control
Method: (§1) As previously described (Shibata et al., Hum. Mol. Genet. 9:1303-1313 (2000) and Scoles et al., Nat. Genet. 18:354-359 (1998)), the bait plasmid was cotransformed in yeast strain Y190 and grown on synthetic media without leucine, tryptophan, and histidine, and with 25 mM 3-amino-1,2,4-triazole and 2% glucose. The Y190 strain allows for nutritional selection of the HIS3 gene that allows growth in media lacking histidine and color selection using the LacZ gene encoding β-galactosidase. The β-galactosidase reporter was assayed on stamped nitrocellulose filters by incubating freeze-fractured colonies in Z-buffer (60 mM Na₂HPO₄, 40 mM NaH₂PO₄, 10 mM KCl, 1 mM MgSO₄, pH 7.0, 0.03 mM β-mercaptoethanol, and 2.5 μM X-gal) at 37° C. for 15 min to 8 hr. Positive clones were restreaked on synthetic media without leucine or tryptophan, and retested for β-galactosidase activity, and then pGAD10. “prey” plasmids were isolated.

[5] = target: T4, GAL4 binding domain-NF2 fusion encoded by pGBT9-NF2 (schwannomin tumor suppressor) (UniProt P04386 1-147; P35240 1-595, limits assumed); experiment: yeast two-hybrid filter assay
T4 construct: also called pGBT9-NF1
Method: as §1

[6] = target: T5, GAL4 binding domain alone (pGBT9 vector control) (UniProt P04386 1-147); experiment: yeast two-hybrid filter assay
T5 construct: Empty bait vector control; also called negative control vector pGBT9
Method: as §1

[7] = target: GAL4 binding domain-parkin(1-465) fusion encoded by pGBT9-parkin(1-465) (UniProt P04386 1-147; O60260 1-465); experiment: cell-based or functional assay
[8] = target: T6, hemaglutinin-parkin (HA-parkin), full-length wild type (UniProt O60260 1-465); experiment: co-IP
T6 construct: also called pCMV-HA-parkin

B1: endogenous synaptotagmin 1 of PC12 cells (other, UniProt P21707 1-421, looked up)
chain: MVSASHPEALAAPVTTVATLVPHNATEPASPGEGKEDAFSKLKQKFMNELHKIPLPPWALIAIAIVAVLLVVTCCFCVCKKCLFKKKNKKKGKEKGGKNAINMKDVKDLGKTMKDQALKDDDAETGLTDGEEKEEPKEEEKLGKLQYSLDYDFQNNQLLVGIIQAAELPALDMGGTSDPYVKVFLLPDKKKKFETKVHRKTLNPVFNEQFTFKVPYSELGGKTLVMAVYDFDRFSKHDIIGEFKVPMNTVDFGHVTEEWRDLQSAEKEEQEKLGDICFSLRYVPTAGKLTVVILEAKNLKKMDVGGLSDPYVKIHLMQNGKRLKKKKTTIKKNTLNPYYNESFSFEVPFEQIQKVQVVVTVLDYDKIGKNDAIGKVFVGYNSTGAELRHWSDMLANPRRPIAQWHTLQVEEEVDAMLAVKK
notes: also called syt1; endogenous syt1
B1: binds [1].

B2: HA-tagged truncated parkin p294-465 (enzyme, UniProt O60260 294-465, looked up, not shown: small tags and cut ends)
chain: PNSLIKELHHFRILGEEQYNRYQQYGAEECVLQMGGVLCPRPGCGAGLLPEPDQRKVTCEGGNGLGCGFAFCRECKEAYHEGECSAVFEASGTTTQAYRVDERAAEQARWEAASKETIKKTTKPCPRCHVPVEKNGGCMHMKCPQPQCRLEWCWNCGCEWNRVCMGDHWFDV
B2: no binding [2].

B3: HA-tagged truncated parkin p294-385 (enzyme, UniProt O60260 294-385, looked up, not shown: small tags and cut ends)
chain: PNSLIKELHHFRILGEEQYNRYQQYGAEECVLQMGGVLCPRPGCGAGLLPEPDQRKVTCEGGNGLGCGFAFCRECKEAYHEGECSAVFEASG
notes: range 294-385
B3: no binding [2].

B4: endogenous synaptotagmin XI of human brain (other)
chain: MAEITNIRPSFDVSPVVAGLIGASVLVVCVSVTVFVWSCCHQQAEKKHKNPPYKFIHMLKGISIYPETLSNKKKIIKVRRDKDGPGREGGRRNLLVDAAEAGLLSRDKDPRGPSSGSCIDQLPIKMDYGEELRSPITSLTPGESKTTSPSSPEEDVMLGSLTFSVDYNFPKKALVVTIQEAHGLPVMDDQTQGSDPYIKMTILPDKRHRVKTRVLRKTLDPVFDETFTFYVIPYSQLQDLVLHFLVLSFDRFSRDDVIGEVMVPLAGVDPSTGKVQLTRDIIKRNIQKCISRGELQVSLSYQPVAQRMTVVVLKARHLPKMDITGLSGNPYVKVNVYYGRKRIAKKKTHVKKCTLNPIFNESFIYDIPTDLLPDISIEFLVIDFDRTTKNEVVGRLILGAHSVTASGAEHWREVCESPRKPVAKWHSLSEY
notes: Endogenous protein; also called endogenous sytXI; sytXI protein band
B4: binds [3].

B5: GAL4 activation domain-MP23a fusion (partial clone of human synapsin-like protein, SLP, in pGAD10) (other, not shown: large carriers)
chain: SFSSSPPPGPPRIAAAAFSSPGRCGCGCPCHLLTAEPPTQDGGRLSLGPEQNLGPHPQKPGCKRAAPTYESCIKFPTRLRFIRLEVEQHHLVDIVAVTTKTGKTEATPHGMRLMNELLQPGCQGSEEKPLRPCFLIISYA
notes: also called SLP (MP23a)
B5: no binding [4]; no binding [5]; no binding [6]. The “β-galactosidase activity in yeast two-hybrid liquid assay, against negative control vector pGBT9” value [7] was roughly 30 fold.

B6: HA-tagged truncated parkin p1-203 (enzyme, UniProt O60260 1-203, looked up, not shown: small tags and cut ends)
chain: MIVFVRFNSSHGFPVEVDSDTSIFQLKEVVAKRQGVPADQLRVIFAGKELRNDWTVQNCDLDQQSIVHIVQRPWRKGQEMNATGGDDPRNAAGGCEREPQSLTRVDLSSSVLPGDSVGLAVILHTDSRKDSPPAGSPAGRSIYNSFYVYCKGPCQRVQPGKLRVQCSTCRQATLTLTQGPSCWDDVLIPNRMSGECQSPHCPG
B6: no binding [2].

B7: full length synapsin-like protein (SLP), GFP fusion (other)
chain: MAQHIQLPGVKALVYVCFTAVLGHSVGWHRGHFGQHGLGRGAVRTRLWIRPGHATFLGQRRAGHQCRFPGSRRRQLLKEPKPSPAAPSSFSSSPPPGPPRIAAAAFSSPGRCGCGCPCHLLTAEPPTQDGGRLSLGPEQNLGPHPQKPGCKRAAPTYESCIKFPTRLRFIRLEVEQHHLVDIVAVTTKTGKTEATPHGMRLMNELLQPGCQGSEEKPLRPCFLIISYA
notes: the construct is inferred; also called the full length protein; not shown: green fluorescent protein (GFP)
B7: binds [8].
